# B1: GpH7-A5/GpH7-B3 variant I336_08L/GpL16-k0 (antibody, human IgG1, kappa)
# heavy 1: not shown
# heavy 2: not shown
# light: DIVMTQSPLSLPVTPGEPASISCQASESLVHSNRNTYLHWYLQKPGQSPQLLIYKVSNRFSGVPDRFSGSGSGTDFTLKISRVEAEDVGVYYCSQNTHVPPTFGQGTKVEIERTVAAPSVFIFPPSDEQLKSGTASVVCLLNNFYPREAKVQWKVDNALQSGNSQESVTEQDSKDSTYSLSSTLTLSKADYEKHKVYACEVTHQGLSSPVTKSFNRGEC
# notes: also called He Ab I336_08L
# B2: GpH7-A5/GpH7-B3 variant Y296_04F/GpL16-k0 (antibody, human IgG1, kappa)
# heavy 1: not shown
# heavy 2: not shown
# light: B1 light
# notes: also called He Ab Y296_04F
# B3: GpH7-A5/GpH7-B3 variant K326_07I/GpL16-k0 (antibody, human IgG1, kappa)
# heavy 1: not shown
# heavy 2: not shown
# light: B1 light
# notes: also called He Ab K326_07I
# B4: GpH7-A5/GpH7-B3 variant K326_01G/GpL16-k0 (antibody, human IgG1, kappa)
# heavy 1: not shown
# heavy 2: not shown
# light: B1 light
# notes: also called He Ab K326_01G
# B5: GpH7-A5/GpH7-B3 variant K334_19Q/GpL16-k0 (antibody, human IgG1, kappa)
# heavy 1: not shown
# heavy 2: not shown
# light: B1 light
# notes: also called He Ab K334_19Q
# B6: GpH7-A5/GpH7-B3 variant E333_09D/GpL16-k0 (antibody, human IgG1, kappa)
# heavy 1: not shown
# heavy 2: not shown
# light: B1 light
# notes: also called He Ab E333_09D
# B7: GpH7-A5/GpH7-B3 variant S239_10E/GpL16-k0 (antibody, human IgG1, kappa)
# heavy 1: not shown
# heavy 2: not shown
# light: B1 light
# notes: also called He Ab S239_10E
# B8: GpH7-A5/GpH7-B3 variant T335_10E/GpL16-k0 (antibody, human IgG1, kappa)
# heavy 1: not shown
# heavy 2: not shown
# light: B1 light
# notes: also called He Ab T335_10E
# B9: GpH7-A5/GpH7-B3 variant G236_07I/GpL16-k0 (antibody, human IgG1, kappa)
# heavy 1: not shown
# heavy 2: not shown
# light: B1 light
# notes: also called He Ab G236_07I
# B10: GpH7-A5/GpH7-B3 variant K334_08L/GpL16-k0 (antibody, human IgG1, kappa)
# heavy 1: not shown
# heavy 2: not shown
# light: B1 light
# notes: also called He Ab K334_08L
# B11: GpH7-A5/GpH7-B3 variant K326_10E/GpL16-k0 (antibody, human IgG1, kappa)
# heavy 1: not shown
# heavy 2: not shown
# light: B1 light
# notes: also called He Ab K326_10E
# B12: GpH7-A5/GpH7-B3 variant S239_09D/GpL16-k0 (antibody, human IgG1, kappa)
# heavy 1: not shown
# heavy 2: not shown
# light: B1 light
# notes: also called He Ab S239_09D
# B13: GpH7-A5/GpH7-B3 variant T335_15Y/GpL16-k0 (antibody, human IgG1, kappa)
# heavy 1: not shown
# heavy 2: not shown
# light: B1 light
# notes: also called He Ab T335_15Y
# B14: GpH7-A5/GpH7-B3 variant A330_16H/GpL16-k0 (antibody, human IgG1, kappa)
# heavy 1: not shown
# heavy 2: not shown
# light: B1 light
# notes: also called He Ab A330_16H
# B15: GpH7-A5/GpH7-B3 variant T335_07I/GpL16-k0 (antibody, human IgG1, kappa)
# heavy 1: not shown
# heavy 2: not shown
# light: B1 light
# notes: also called He Ab T335_07I
# B16: GpH7-A5/GpH7-B3 variant T335_01G/GpL16-k0 (antibody, human IgG1, kappa)
# heavy 1: not shown
# heavy 2: not shown
# light: B1 light
# notes: also called He Ab T335_01G
# B17: GpH7-A5/GpH7-B3 variant L234_04F/GpL16-k0 (antibody, human IgG1, kappa)
# heavy 1: not shown
# heavy 2: not shown
# light: B1 light
# notes: also called He Ab L234_04F
# B18: GpH7-A5/GpH7-B3 variant K326_06M/GpL16-k0 (antibody, human IgG1, kappa)
# heavy 1: not shown
# heavy 2: not shown
# light: B1 light
# notes: also called He Ab K326_06M
# B19: GpH7-A5/GpH7-B3 variant S337_08L/GpL16-k0 (antibody, human IgG1, kappa)
# heavy 1: not shown
# heavy 2: not shown
# light: B1 light
# notes: also called He Ab S337_08L
# B20: GpH7-A5/GpH7-B3 variant S267_09D/GpL16-k0 (antibody, human IgG1, kappa)
# heavy 1: not shown
# heavy 2: not shown
# light: B1 light
# notes: also called He Ab S267_09D
# B21: GpH7-A5/GpH7-B3 variant L234_15Y/GpL16-k0 (antibody, human IgG1, kappa)
# heavy 1: not shown
# heavy 2: not shown
# light: B1 light
# notes: also called He Ab L234_15Y
# B22: GpH7-A5/GpH7-B3 variant S337_09D/GpL16-k0 (antibody, human IgG1, kappa)
# heavy 1: not shown
# heavy 2: not shown
# light: B1 light
# notes: also called He Ab S337_09D
# B23: GpH7-A5/GpH7-B3 variant L235_20W/GpL16-k0 (antibody, human IgG1, kappa)
# heavy 1: not shown
# heavy 2: not shown
# light: B1 light
# notes: also called He Ab L235_20W
# B24: GpH7-A5/GpH7-B3 variant K334_13S/GpL16-k0 (antibody, human IgG1, kappa)
# heavy 1: not shown
# heavy 2: not shown
# light: B1 light
# notes: also called He Ab K334_13S
# B25: GpH7-A5/GpH7-B3 variant I336_18N/GpL16-k0 (antibody, human IgG1, kappa)
# heavy 1: not shown
# heavy 2: not shown
# light: B1 light
# notes: also called He Ab I336_18N
# B26: GpH7-A5/GpH7-B3 variant T335_18N/GpL16-k0 (antibody, human IgG1, kappa)
# heavy 1: not shown
# heavy 2: not shown
# light: B1 light
# notes: also called He Ab T335_18N
# B27: GpH7-A5/GpH7-B3 variant I336_06M/GpL16-k0 (antibody, human IgG1, kappa)
# heavy 1: not shown
# heavy 2: not shown
# light: B1 light
# notes: also called He Ab I336_06M
# B28: GpH7-A5/GpH7-B3 variant S267_10E/GpL16-k0 (antibody, human IgG1, kappa)
# heavy 1: not shown
# heavy 2: not shown
# light: B1 light
# notes: also called He Ab S267_10E
# B29: GpH7-A5/GpH7-B3 variant H268_19Q/GpL16-k0 (antibody, human IgG1, kappa)
# heavy 1: not shown
# heavy 2: not shown
# light: B1 light
# notes: also called He Ab H268_19Q
# B30: GpH7-A5/GpH7-B3 variant H268_02A/GpL16-k0 (antibody, human IgG1, kappa)
# heavy 1: not shown
# heavy 2: not shown
# light: B1 light
# notes: also called He Ab H268_02A
# Biological target: FcγRIIa H (human, UniProt P12318 34-217)
# Sequence (P12318 34-217): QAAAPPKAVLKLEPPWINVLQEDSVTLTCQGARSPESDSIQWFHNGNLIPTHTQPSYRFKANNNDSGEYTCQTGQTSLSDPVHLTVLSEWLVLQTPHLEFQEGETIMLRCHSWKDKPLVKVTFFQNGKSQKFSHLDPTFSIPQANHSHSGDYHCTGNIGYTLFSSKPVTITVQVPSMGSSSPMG
# Assay: SPR Biacore, captured antibody, FcγR analyte; vs GpH7-A5/GpH7-B3/GpL16-k0 = 100
row,He/Con_2aH,Binder
1,106 % of control,B1
2,100 % of control,B2
3,100 % of control,B3
4,100 % of control,B4
5,101 % of control,B5
6,103 % of control,B6
7,112 % of control,B7
8,108 % of control,B8
9,115 % of control,B9
10,104 % of control,B10
11,102 % of control,B11
12,114 % of control,B12
13,106 % of control,B13
14,101 % of control,B14
15,108 % of control,B15
16,103 % of control,B16
17,120 % of control,B17
18,103 % of control,B18
19,100 % of control,B19
20,105 % of control,B20
21,120 % of control,B21
22,107 % of control,B22
23,118 % of control,B23
24,102 % of control,B24
25,103 % of control,B25
26,103 % of control,B26
27,106 % of control,B27
28,102 % of control,B28
29,102 % of control,B29
30,114 % of control,B30
